Measurements: patent US7514397

Biological target: viral gp41 of HIV-1IIIB (HIV-1IIIB)
Assay: cell-based or functional assay

Substance | Cell fusion (IC90) [µM] | HIV infectivity (IC90) [µM]
M41, maltose binding protein fusion with the extracellular domain of HIV-1 gp41 (540-686) (from UniProt P03377 540-686) | > 50 | > 16
M41-P, M41 fusion protein with an Ile to Pro mutation at position 578 (from UniProt P0AEX9 27-392; P03377 540-686) | 0.083 | 0.066
M41-PΔ178, M41-P fusion protein from which the DP-178 region has been deleted (gp41 540-642, Ile578Pro) (from UniProt P03377 540-642) | > 50 | > 8
